In PMC2667941:
Read-outs that look alike come from different tables or passages of the source.

Experiments:
human alpha-thrombin [1] = biological target: T1, human alpha-thrombin (Homo sapiens, UniProt P00734;P00734 328-363;364-622); test: gel filtration chromatography
human alpha-thrombin [2] = biological target: T1, human alpha-thrombin; test: gel filtration chromatography; remark: listed apart in the source

Binder | binding result (human alpha-thrombin [1]) | binding result (human alpha-thrombin [2])
GGTTGGTGTGGTTGGAAAAATCGGGCGTAC (structured_DNA, 9 phosphorothioate linkages, between the last 10 nt (T*C*G*G*G*C*G*T*A*C); rest phosphodiester) [ps-po-TBA on CdTe] | binds | –
TCCGCTGCAGAAAAATCGGGCGTAC (ssDNA, 9 phosphorothioate linkages, between the last 10 nt (T*C*G*G*G*C*G*T*A*C); rest phosphodiester) [ps-po-X on CdTe (same sequence as ps-po)] | – | no binding
